Results taken from patent US12590158 (XIYUAN ANJIAN MEDICINE SHANGHAI, dated 2026).
Where two headings read alike, the source gives them in different places.

Columns and labels:
[1] = target: T1, full-length human TrkA expressed on cells (human, UniProt P04629 33-796); assay: cell-based or functional assay
[2] = target: T1, full-length human TrkA expressed on …; assay: cell-based or functional assay; remark: listed apart in the source
[3] = target: T1, full-length human TrkA expressed on …; assay: cell-based or functional assay; remark: listed apart in the source
[4] = target: fusion protein (fused to human Fc) containing only the portion of human TrkA extracellular region that binds NGF (TrkA 192-402) (ACROBiosystems TRA-H5258) (human) (UniProt P04629); assay: ELISA, coated human TrkA (192-402)-hFc
fusion protein (fused to human Fc) containing only the portion of human TrkA extracellular region that binds NGF (TrkA 192-402) (ACROBiosystems TRA-H5258) (human), sequence (P04629 192-402 limits assumed, form in doubt): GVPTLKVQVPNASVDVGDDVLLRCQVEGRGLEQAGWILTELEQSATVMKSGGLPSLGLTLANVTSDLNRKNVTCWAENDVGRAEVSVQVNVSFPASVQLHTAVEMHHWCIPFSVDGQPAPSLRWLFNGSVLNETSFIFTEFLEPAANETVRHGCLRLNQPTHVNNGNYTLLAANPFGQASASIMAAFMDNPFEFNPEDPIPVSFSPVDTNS

[5] = target: T2, TrkA extracellular region (33-417) protein comprising human Fc (ACROBiosystems TRA-H5259) (human, UniProt P04629 33-417); assay: ELISA, coated human TrkA (33-417)-hFc, anti-mouse Fc-HRP
T2 construct: range 33-417; Bought fusion protein; also called human TrkA (33-417); human TrkA extracellular region
T2 sequence (P04629 33-417 limits assumed): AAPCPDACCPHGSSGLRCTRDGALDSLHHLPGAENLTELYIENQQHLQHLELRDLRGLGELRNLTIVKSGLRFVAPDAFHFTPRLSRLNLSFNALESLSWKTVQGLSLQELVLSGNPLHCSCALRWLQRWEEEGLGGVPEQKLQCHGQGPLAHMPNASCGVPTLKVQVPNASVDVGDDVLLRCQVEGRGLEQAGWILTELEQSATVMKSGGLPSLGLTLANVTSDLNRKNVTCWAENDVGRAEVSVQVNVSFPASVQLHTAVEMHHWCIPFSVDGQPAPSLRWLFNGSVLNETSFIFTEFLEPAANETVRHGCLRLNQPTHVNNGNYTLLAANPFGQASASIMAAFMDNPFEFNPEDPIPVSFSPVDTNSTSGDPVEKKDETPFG
Procedure: (§1) Example 2: ELISA Detection of the Binding of Murine Anti-TrkA Antibodies to Human TrkA The binding abilities of the anti-TrkA antibodies were detected by using a TrkA extracellular region (33-417) protein comprising human Fc (Beijing ACROBiosystems Co., Ltd., TRA-H5259). Each well of a 96-well microtiter plate was coated with 50 ng of human TrkA, washed and blocked, and then added with serially diluted antibodies, and incubated at room temperature for 1 hour. After washing three times, horseradish peroxidase-conjugated goat anti-mouse Fc antibody (Biolegend, 405306) was added and incubated at room temperature for 1 hour. After washing three time, tetramethylbenzidine (TMB, Biolegend, 421101) was added for color development. 1M HCl was used to terminate the color development, and the absorbance values were read at 450 nm with a microplate reader.

[6] = target: T3, rat TrkA extracellular region fusion protein (fused to human Fc) (Yiqiao Shenzhou 80243-R03H) (rat, UniProt P35739 33-418); assay: ELISA, plate coated with rat TrkA extracellular region-hFc, HRP goat anti-mouse Fc detection
T3 construct: extracellular domain; Bought fusion protein
T3 sequence (P35739 33-418, stated change not applied): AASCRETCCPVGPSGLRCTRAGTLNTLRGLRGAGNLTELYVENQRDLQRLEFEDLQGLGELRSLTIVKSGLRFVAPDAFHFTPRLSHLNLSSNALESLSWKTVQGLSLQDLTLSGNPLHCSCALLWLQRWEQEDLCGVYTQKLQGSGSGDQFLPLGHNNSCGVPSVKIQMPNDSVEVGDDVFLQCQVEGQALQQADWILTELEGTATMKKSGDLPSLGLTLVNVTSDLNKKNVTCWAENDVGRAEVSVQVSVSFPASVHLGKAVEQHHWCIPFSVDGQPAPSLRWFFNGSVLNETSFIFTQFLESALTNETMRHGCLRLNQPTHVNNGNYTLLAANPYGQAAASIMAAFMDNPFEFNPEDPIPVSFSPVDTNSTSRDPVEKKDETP
Procedure: as §1
(§2) In addition, the species cross-reactivities of anti-TrkA antibodies were detected with monkey TrkA (Hangzhou Haoyang Biotechnology Co., Ltd., HSP037-05), rat TrkA (Beijing Yiqiao Shenzhou Technology Co., Ltd., 80243-R03H), mouse TrkA (Beijing Yiqiao Shenzhou Technology Co., Ltd., 51103-M02H) extracellular region fusion protein (fused to human Fc).

[7] = target: T2, TrkA extracellular region (33-417) …; assay: competition ELISA, coated TrkA (33-417)-hFc, antibody titrated, competitor biotin-labeled human NGF
Procedure: Each well of a 96-well microtiter plate was coated with 50 ng of TrkA extracellular region (33-417) protein fused to human Fc, washed three times and blocked with 3% BSA for 1 hour. […] Each well was added with 100 μl and incubated at room temperature for 30 minutes. […] Streptavidin-labeled horseradish peroxidase (Streptavidin-HRP, Biolegend, 405210) was added and incubated for 0.5 hours. After washing three times, TMB was added to the plate, and the absorbance at 450 nm was read by a microplate reader after the color development was terminated.

[8] = target: T2, TrkA extracellular region (33-417) …; assay: BLI (ForteBio Octet Red96), TrkA (33-417)-hFc captured on anti-human Fc sensor, antibody in solution
Description: Example 3: Affinity Assay of Murine Anti-TrkA Antibodies Binding to Human TrkA The affinities of the antibodies were detected with Biomolecular Interaction Detection Platform (ForteBio Octet Red96 (PALL)).
Human TrkA extracellular region (33-417) protein containing human Fc tag was fixed onto a chip by using an anti-human Fc capture sensor (Fortebio, 18-5088), and then bound to gradient concentrations of anti-TrkA antibody.

[9] = target: T4, mouse TrkA extracellular region fusion protein (fused to human Fc) (Yiqiao Shenzhou 51103-M02H) (mouse, UniProt Q3UFB7 34-420); assay: ELISA, plate coated with mouse TrkA extracellular region-hFc, HRP goat anti-mouse Fc detection
T4 construct: extracellular domain; Bought fusion protein
T4 sequence (Q3UFB7 34-420, stated change not applied): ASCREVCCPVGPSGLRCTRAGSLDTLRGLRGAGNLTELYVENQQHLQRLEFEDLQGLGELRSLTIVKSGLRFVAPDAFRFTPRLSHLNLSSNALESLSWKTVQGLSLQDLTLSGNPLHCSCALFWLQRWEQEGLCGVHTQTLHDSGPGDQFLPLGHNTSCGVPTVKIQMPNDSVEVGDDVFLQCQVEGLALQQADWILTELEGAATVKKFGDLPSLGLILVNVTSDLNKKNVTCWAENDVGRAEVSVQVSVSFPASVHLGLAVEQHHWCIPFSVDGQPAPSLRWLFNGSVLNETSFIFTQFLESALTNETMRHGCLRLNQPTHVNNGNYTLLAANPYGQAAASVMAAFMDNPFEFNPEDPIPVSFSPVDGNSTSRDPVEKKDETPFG
Procedure: as §1, §2

[10] = target: T5, human TrkB extracellular region protein (Yiqiao Shenzhou 10047-H03H) (human, UniProt Q16620 32-430); assay: ELISA, plate coated with human TrkB extracellular region protein, HRP goat anti-mouse Fc detection
T5 construct: extracellular domain; Bought protein
T5 sequence (Q16620 32-430): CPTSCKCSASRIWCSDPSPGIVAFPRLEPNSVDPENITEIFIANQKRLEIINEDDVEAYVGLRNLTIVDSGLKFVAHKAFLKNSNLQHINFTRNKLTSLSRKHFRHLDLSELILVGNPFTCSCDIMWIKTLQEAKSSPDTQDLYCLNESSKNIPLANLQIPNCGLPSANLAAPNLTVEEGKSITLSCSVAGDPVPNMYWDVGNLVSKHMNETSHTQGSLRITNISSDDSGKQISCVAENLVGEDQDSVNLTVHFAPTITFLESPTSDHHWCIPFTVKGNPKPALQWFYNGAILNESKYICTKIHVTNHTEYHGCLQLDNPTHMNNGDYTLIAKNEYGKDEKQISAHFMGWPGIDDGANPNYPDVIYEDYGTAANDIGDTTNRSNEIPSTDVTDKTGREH
Procedure: as §1
(§3) Example 7: Detection of the Binding of Murine Anti-TrkA Antibodies to TrkA Proteins of the Same Family Each well of a 96-well microtiter plate was coated with 50 ng of human TrkA extracellular region protein, human TrkB extracellular region protein (Beijing Yiqiao Shenzhou Technology Co., Ltd., 10047-H03H), human TrkC extracellular region protein (Beijing Yiqiao Shenzhou Technology Co., Ltd., 10048-H03H). The bindings of the anti-TrkA antibodies to human TrkA and the two proteins of the same family were detected according to the method described in Example 2.

[11] = target: T6, human TrkC extracellular region protein (Yiqiao Shenzhou 10048-H03H) (human, UniProt Q16288 32-429); assay: ELISA, plate coated with human TrkC extracellular region protein, HRP goat anti-mouse Fc detection
T6 construct: extracellular domain; Bought protein
Procedure: as §1, §3

[12] = target: T1, full-length human TrkA expressed on …; assay: cell-based or functional assay; remark: listed apart in the source
[13] = target: T1, full-length human TrkA expressed on …; assay: cell-based or functional assay; remark: listed apart in the source
[14] = target: T1, full-length human TrkA expressed on …; assay: flow cytometry titration on TrkA/CHO cells
Procedure: (§4) The cells were cultured according to the manufacturer's instruction. The cells were harvested in the logarithmic growth phase, re-suspended in flow buffer (PBS+2% FBS, pH 7.4), and added into 96-well plate, 10^5 cells per well (50 µl). 50 µl of 100 µg/mL humanized anti-TrkA antibody was added, incubated at room temperature for 60 min, and centrifuged at 1200 rpm. The supernatant was discarded and the cells were washed 3 times. FITC-labeled goat anti-human Fc antibody (Abeam, ab97224) was diluted to 5 µg/mL with flow buffer and used to re-suspend the cells, incubated at room temperature for 30 min in the dark, centrifuged, and the supernatant was discarded. After washing 3 times, the cells were re-suspended with 7AAD solution (Biolegend, 420403), incubated for 10 min at room temperature, and the binding of the antibody was detected with a flow cytometer (BioRad, ZE5).
The binding curve of the humanized anti-TrkA antibodies and TrkA/CHO cells was detected with the same flow cytometry.

[15] = target: T7, human TrkA extracellular region (33-417) protein containing mouse Fc (human, UniProt P04629 33-417); assay: ELISA, coated human TrkA (33-417)-mouse Fc, anti-human IgG-HRP
T7 construct: range 33-417
T7 sequence (P04629 33-417 limits assumed): as the sequence (P04629 33-417 limits assumed) above
Procedure: Each well of a 96-well microtiter plate was coated with 50 ng of human TrkA, washed and blocked, then added with serially diluted humanized antibodies, and incubated for 1 hour at room temperature. After washing three times, horseradish peroxidase-conjugated goat anti-human IgG antibody (ThermoFisher, A18817) was added and reacted at room temperature for 1 hour. After washing three time, tetramethylbenzidine (TMB, Biolegend) was added for color development. 1M HCl was used to terminate the color development, and the absorbance values were read at 450 nm with a microplate reader.

[16] = target: T8, human TrkB expressed on CHO cells (TrkB/CHO, ThermoFisher K1491) (human, UniProt Q16620 32-822); assay: flow cytometry on TrkB/CHO cells, FITC goat anti-human Fc
T8 construct: whole, on cells
T8 sequence (Q16620 32-822): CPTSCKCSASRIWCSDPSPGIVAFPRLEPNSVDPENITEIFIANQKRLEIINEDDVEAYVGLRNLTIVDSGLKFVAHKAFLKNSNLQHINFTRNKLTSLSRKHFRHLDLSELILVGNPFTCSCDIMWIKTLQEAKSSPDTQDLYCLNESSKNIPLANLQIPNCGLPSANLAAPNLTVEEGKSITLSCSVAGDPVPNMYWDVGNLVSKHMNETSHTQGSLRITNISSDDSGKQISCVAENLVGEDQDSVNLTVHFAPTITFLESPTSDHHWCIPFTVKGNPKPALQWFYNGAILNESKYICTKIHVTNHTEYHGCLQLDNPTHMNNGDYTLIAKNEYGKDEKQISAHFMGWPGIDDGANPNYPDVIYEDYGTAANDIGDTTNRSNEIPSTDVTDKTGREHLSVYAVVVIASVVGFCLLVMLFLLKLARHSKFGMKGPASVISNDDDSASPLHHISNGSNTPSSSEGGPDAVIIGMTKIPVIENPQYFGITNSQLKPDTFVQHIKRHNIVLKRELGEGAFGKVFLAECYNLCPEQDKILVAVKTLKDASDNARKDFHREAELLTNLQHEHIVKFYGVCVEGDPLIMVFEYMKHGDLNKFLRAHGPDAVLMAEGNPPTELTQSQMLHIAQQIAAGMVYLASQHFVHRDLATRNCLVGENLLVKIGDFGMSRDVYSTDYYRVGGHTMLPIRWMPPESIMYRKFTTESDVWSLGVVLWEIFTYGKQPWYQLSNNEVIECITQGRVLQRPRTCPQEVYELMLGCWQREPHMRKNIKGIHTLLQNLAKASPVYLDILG
Procedure: (§5) CHO-K1 was used as a negative control. The binding of the humanized antibodies to the four cell lines was detected by flow cytometry.
as §4

[17] = target: T9, human TrkC expressed on CHO cells (TrkC/CHO, ThermoFisher K1515) (human, UniProt Q16288 32-839); assay: flow cytometry on TrkC/CHO cells, FITC goat anti-human Fc
T9 construct: whole, on cells
T9 sequence (Q16288 32-839): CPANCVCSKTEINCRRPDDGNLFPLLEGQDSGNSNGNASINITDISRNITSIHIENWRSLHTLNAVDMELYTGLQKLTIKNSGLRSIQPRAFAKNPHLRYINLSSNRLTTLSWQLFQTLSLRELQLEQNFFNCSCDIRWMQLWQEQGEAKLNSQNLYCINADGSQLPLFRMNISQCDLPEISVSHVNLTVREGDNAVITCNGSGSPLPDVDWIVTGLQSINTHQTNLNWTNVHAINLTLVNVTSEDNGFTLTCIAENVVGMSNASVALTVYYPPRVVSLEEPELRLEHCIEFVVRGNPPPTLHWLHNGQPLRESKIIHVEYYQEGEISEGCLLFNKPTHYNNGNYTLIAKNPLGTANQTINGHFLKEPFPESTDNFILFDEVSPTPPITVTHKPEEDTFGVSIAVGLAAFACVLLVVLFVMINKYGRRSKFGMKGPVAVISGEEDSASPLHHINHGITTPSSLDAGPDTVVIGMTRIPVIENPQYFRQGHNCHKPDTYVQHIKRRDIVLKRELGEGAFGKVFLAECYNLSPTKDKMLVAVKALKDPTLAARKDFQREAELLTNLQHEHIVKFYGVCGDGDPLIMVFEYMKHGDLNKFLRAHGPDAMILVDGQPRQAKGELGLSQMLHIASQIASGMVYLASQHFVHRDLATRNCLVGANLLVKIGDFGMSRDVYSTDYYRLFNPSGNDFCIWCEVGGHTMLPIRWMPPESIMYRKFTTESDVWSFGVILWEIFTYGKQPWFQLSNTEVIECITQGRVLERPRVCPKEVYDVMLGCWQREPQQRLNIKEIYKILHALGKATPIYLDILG
Procedure: as §5, §4

T1 sequence (P04629 33-796): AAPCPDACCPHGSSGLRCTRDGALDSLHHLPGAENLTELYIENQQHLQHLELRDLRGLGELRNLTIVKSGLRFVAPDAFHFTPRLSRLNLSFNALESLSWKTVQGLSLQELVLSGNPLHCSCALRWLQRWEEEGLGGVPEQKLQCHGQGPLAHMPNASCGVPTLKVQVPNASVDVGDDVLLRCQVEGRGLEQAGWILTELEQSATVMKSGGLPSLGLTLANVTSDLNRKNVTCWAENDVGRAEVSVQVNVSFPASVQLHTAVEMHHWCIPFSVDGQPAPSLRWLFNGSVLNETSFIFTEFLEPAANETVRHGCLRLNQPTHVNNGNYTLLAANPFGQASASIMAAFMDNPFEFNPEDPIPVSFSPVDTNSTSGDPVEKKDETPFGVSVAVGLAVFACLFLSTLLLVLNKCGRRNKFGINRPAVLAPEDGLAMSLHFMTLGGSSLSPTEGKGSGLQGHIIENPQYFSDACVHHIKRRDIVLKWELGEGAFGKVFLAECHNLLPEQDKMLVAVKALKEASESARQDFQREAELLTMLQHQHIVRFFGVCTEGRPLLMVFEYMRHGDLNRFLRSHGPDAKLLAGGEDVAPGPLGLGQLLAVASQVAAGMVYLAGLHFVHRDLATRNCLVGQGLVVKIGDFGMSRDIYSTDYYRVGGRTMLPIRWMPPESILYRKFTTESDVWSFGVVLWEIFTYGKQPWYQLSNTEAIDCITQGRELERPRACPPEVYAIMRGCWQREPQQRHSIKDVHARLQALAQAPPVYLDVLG

inhibition of NGF-induced TrkA/Ba/F3 cell proliferation at 2.5 µg/mL (16.67 nM) or higher [1] | IC50 of inhibiting NGF-induced TF-1 cell proliferation [2] | IC50 of inhibiting NGF-induced TrkA/Ba/F3 cell proliferation [3] | EC50 [4] | EC50 [5] | binding result [6] | IC50 [7] | Kd [8] | koff [8] | kon [8] | binding result [9] | binding result [10] | binding result [11] | IC50 of inhibiting NGF-induced TF-1 cell proliferation [12] | IC50 of inhibiting NGF-induced TrkA/Ba/F3 cell proliferation [13] | EC50 [14] | EC50 [15] | binding result [16] | binding result [17] | Binder
100% | 8.53 nM | 1.8 nM | 0.195 nM | 0.202 nM | binds | 2.28 nM | 0.0271 nM | 2.49e-05 s⁻¹ | 918000 M⁻¹ s⁻¹ | binds | no binding (tested: 66.67 nM) | no binding (tested: 66.67 nM) |  |  |  |  |  |  | anti-TrkA antibody 40D6 (antibody, V domains shown, Murine monoclonal antibody purified from hybridoma medium by protein G) VH: QVQLQQSGTELMKPGASVKISCKATGYTFSRYWIEWVKQRPGHGLEWIGEILPGRSSTNYNEKFKGKATFTADTSSNTAYMQLSSLTSEDSAVYYCTRVSQLHIYFDYWGQGTTVTVSS VL: DIVMTQVVPSVPVTPGESVSISCRSSKSLLHSNGNTYLYWFQQRPGQSPQLLIYRMSNLASGVPDRFSGSGSGTAFTLRISRVEAEDVAFYYCMQHLEFPLTFGAGTKLELK
 |  |  |  |  |  |  |  |  |  |  |  |  | 1.55 nM | 2.92 nM | 0.49 nM | 0.062 nM | no binding | no binding | human-mouse chimeric antibody 42F5-Chi (antibody, V domains shown) VH: QVQLQQPGAELVKPGASVKLSCKSSGYTFTNYWMHWVRQRPGQGLEWIGEIYPNNGRVNYNEKFKNRATLTVDISSSTAYMQLSSLTSEDSAVYYCARSRYDPMEDWGQGTSVTVSS VL: QVVLTQSPAIMSASPGEKVTMTCSASSSVGYMHWYQQKSGTSPKRWIYDTSKLASGVPTRFSGSGSGTSYSLTISSMEAEDAATYFCQQWSSIPLTFGSGTRLEIK
 |  |  |  |  |  |  |  |  |  |  |  |  | 1.57 nM | 2.97 nM | 0.605 nM | 0.061 nM | no binding | no binding | humanized anti-TrkA antibody 42F5-01 (antibody, V domains shown, VH grafted to human IgG4 heavy chain constant region, VL to human Kappa light chain constant region; also called 43F5-01 [sic]) VH: QVQLVQSGAEVKKPGASVKVSCKSSGYTFTNYWMHWVRQAPGQGLEWMGEIYPNNGRVNYNEKFKNRVTMTVDISISTAYMELSRLRSDDTAVYYCARSRYDPMEDWGQGTTVTVSS VL: DVQLTQSPSSLSASVGDRVTITCSASSSVGYMHWYQQKPGKAPKRLIYDTSKLASGVPSRFSGSGSGTDYTLTISSLQPEDFATYFCQQWSSIPLTFGQGTRLEIK
 |  |  |  |  |  |  |  |  |  |  |  |  | 1.48 nM | 4.42 nM | 0.68 nM | 0.072 nM | no binding | no binding | humanized anti-TrkA antibody 42F5-05 (antibody, V domains shown, VH grafted to human IgG4 heavy chain constant region, VL to human Kappa light chain constant region) VH: QVQLVQSGAEVKKPGASVKVSCKSSGYTFTNYWMHWVRQAPGQGLEWMGEIYPNNGRVNYNEKFKNRVTMTVDISISTAYMELSRLRSDDTAVYYCARSRYDPMEDWGQGTTVTVSS VL: QVQLTQSPSSLSASVGDRVTITCSASSSVGYMHWYQQKPGKAPKRLIYDTSKLASGVPSRFSGSGSGTDYTLTISSLQPEDFATYFCQQWSSIPLTFGQGTRLEIK
100% | 3.58 nM | 0.782 nM | 0.175 nM | 0.135 nM | binds | 2.19 nM | 0.00677 nM | 9.91e-06 s⁻¹ | 1.47e+06 M⁻¹ s⁻¹ | binds | no binding (tested: 66.67 nM) | no binding (tested: 66.67 nM) |  |  |  |  |  |  | anti-TrkA antibody 42H6 (antibody, V domains shown, Murine monoclonal antibody purified from hybridoma medium by protein G) VH: QVQLQQPGVELVKPGASVKLSCKTSGYTFTSYWMHWVKQRPGQGLEWIGEIYSSNGLTNYNEKFKNKATLTVDKSSSTAYMQLTSLTSEDSAIYYCARHWYVFLDHWGQGTTLTVSS VL: QAVVTQESALTTSPGETVTLTCRSSTGAVTTSNHANWVQEKPDHLFTGLIGGINNRAPGVPARFSGSLIGDKAALTITGAQTEDEAIYFCALWYSNHWVFGGGTRLTVL
100% | 1.46 nM | 0.738 nM | 0.234 nM | 0.187 nM | binds | 2.05 nM | 0.00142 nM | 1.26e-06 s⁻¹ | 889000 M⁻¹ s⁻¹ | binds | no binding (tested: 66.67 nM) | no binding (tested: 66.67 nM) |  |  |  |  |  |  | anti-TrkA antibody 42A11 (antibody, V domains shown, Murine monoclonal antibody purified from hybridoma medium by protein G) VH: QVQLQQPGAELVKPGASVKLSCKASGYTFTNYWMHWVKQRPGQGLEWIGEIYPSNGRTNYNEKFKTKATLTVDKSSSTAYMHLSSLTSEDSAVYYCAGSRYDAMDFWGQGTSVTVSS VL: QIVLTQSPAIMSASPGEKVTMTCSASSIISYMHWYQQKSGTSPKRWIYDTSKLASGVPARFSGSGSGTSYSLTISGMEAEDAATYYCHQWTSNPLTFGGGTKLELK
